Blank lines part the entries; values can stand above or below the molecule they belong to. Ends that are not written are not given here.
Legend:
[1] = biological target: L6 rat muscle myoblast TGF-β receptor (rat); assay: competition against 125I-TGF-β2 on L6 rat muscle myoblast TGF-β receptor (Example 5)
[2] = biological target: L6 rat muscle myoblast TGF-β receptor (rat); assay: competition against 125I-TGF-β2 on L6 rat muscle myoblasts
[3] = biological target: L6 rat muscle myoblast TGF-β receptor (rat); assay: competition against 125I-TGF-β2 on L6 rat muscle myoblasts; called apparent dissociation constant of approximately 3 µM in paragraph 85

B1: TGF-β2 16-31 dimer (peptide)
peptide: CLRPLYIDFKRDLGWK
modifications: also: disulfide-linked dimer
- ED50 [2]: 30 µM

B2: TGF-β2 16-47 dimer (peptide)
peptide: CLRPLYIDFKRDLGWKWIHEPKGYNANFCAGA
modifications: also: dimer linked by a single disulfide bond, Cys pairing not settled
- ED50 [3]: 3 µM

Continued, values first:

- ED50 [1]: 60 pM
Molecule: TGF-β2 (from UniProt P61812) (ligand)

- ED50 [2]: 30 µM
B3: TGF-β2 16-47 monomer (peptide)
peptide: B2 peptide

— patent US5420243
